Molecular target: EmER1, EGF receptor of Echinococcus multilocularis, extracellular region in the MALAR-Y2H receptor vector (Echinococcus multilocularis)

In the case of “human EGF, extracellular domain in the MALAR-Y2H ligand vector (from UniProt P01133 23-1032)”, the germinal vesicle breakdown (GVBD) of Xenopus oocytes expressing EmER1 from cRNA, stimulated by 50 nM recombinant human EGF, counted after 15 h is reported as 30%.
